In patent publication US20240034774A1 (Gilead, published 2024):

Key:
gp120 SHIV SF162 P3 = gp120 SHIV SF162 P3 (SHIV SF162 P3); test: single-point ELISA at EC50 conc. of A-1
gp120 Bal = gp120 Bal (HIV (Bal)); test: single-point ELISA at EC50 conc. of A-1
gp120 CAAN = gp120 CAAN (HIV (CAAN)); test: single-point ELISA at EC50 conc. of A-1
BSA = BSA (UniProt P02769 25-607); test: single-point ELISA, BSA control

B1: 1.1.22-1 (antibody, human IgG1, kappa)
heavy: QVQLLQSGAAVTKPGASVRVSCEASGYNIRDYFIHWWRQAPGQGLQWVGWINPKTGQPNNPRQFQGRVSLTRHASWDFDTFSFYMDLKALRSDDTAVYFCARQRSDYWDFDVWGSGTQVTVSSASTKGPSVFPLAPSSKSTSGGTAALGCLVKDYFPEPVTVSWNSGALTSGVHTFPAVLQSSGLYSLSSVVTVPSSSLGTQTYICNVNHKPSNTKVDKKVEPKSCDKTHTCPPCPAPELLAGPDVFLFPPKPKDTLMISRTPEVTCVVVDVSHEDPEVKFNWYVDGVEVHNAKTKPREEQYNSTYRVVSVLTVLHQDWLNGKEYKCKVSNKALPLPEEKTISKAKGQPREPQVYTLPPSREEMTKNQVSLTCLVKGFYPSDIAVEWESNGQPENNYKTTPPVLDSDGSFFLYSKLTVDKSRWQQGNVFSCSVLHEALHSHYTQKSLSLSPGK
light: DIQMTQSPSSLSASVGDTVTITCQANGYLNWYQQRRGKAPKLLIYDGSKLERGVPSRFSGRRWGQEYNLTINNLQPEDIATYFCQVYEFVSPGTNLDLKRTVAAPSVFIFPPSDEQLKSGTASVVCLLNNFYPREAKVQWKVDNALQSGNSQESVTEQDSKDSTYSLSSTLTLSKADYEKHKVYACEVTHQGLSSPVTKSFNRGEC
- ELISA A450 (gp120 SHIV SF162 P3): 1.04 A450
- ELISA A450 (gp120 Bal): 0.88 A450
- ELISA A450 (gp120 CAAN): 1.02 A450
- ELISA A450 (BSA): 0.06 A450

B2: 1.1.26-1 (antibody, human IgG1, kappa)
heavy: QVQLLQSGAAVTKPGASVRVSCEASGYNIRDYFIHWWRQAPGQGLQWVGWINPKTGQPNNPRQFQGRVSLTRHASWDFDTFSFYMDLKALRSDDTAVYFCARQRSDYWDFDVWGSGTQVTVSSASTKGPSVFPLAPSSKSTSGGTAALGCLVKDYFPEPVTVSWNSGALTSGVHTFPAVLQSSGLYSLSSVVTVPSSSLGTQTYICNVNHKPSNTKVDKKVEPKSCDKTHTCPPCPAPELLAGPDVFLFPPKPKDTLMISRTPEVTCVVVDVSHEDPEVKFNWYVDGVEVHNAKTKPREEQYNSTYRVVSVLTVLHQDWLNGKEYKCKVSNKALPLPEEKTISKAKGQPREPQVYTLPPSREEMTKNQVSLTCLVKGFYPSDIAVEWESNGQPENNYKTTPPVLDSDGSFFLYSKLTVDKSRWQQGNVFSCSVLHEALHSHYTQKSLSLSPGK
light: DIQMTQSPSSLSASVGDTVTITCQANGYLNWYQQRRGKAPKLLIYDGSKLERGVPSRFSGRRWGQEYNLTINNLQPEDIATYFCQVYEFVVPGTRLDIKRTVAAPSVFIFPPSDEQLKSGTASVVCLLNNFYPREAKVQWKVDNALQSGNSQESVTEQDSKDSTYSLSSTLTLSKADYEKHKVYACEVTHQGLSSPVTKSFNRGEC
- ELISA A450 (gp120 SHIV SF162 P3): 1.09 A450
- ELISA A450 (gp120 Bal): 0.96 A450
- ELISA A450 (gp120 CAAN): 1.07 A450
- ELISA A450 (BSA): 0.06 A450

B3: 1.1.25-1 (antibody, human IgG1, kappa)
heavy: QVQLLQSGAAVTKPGASVRVSCEASGYNIRDYFIHWWRQAPGQGLQWVGWINPKTGQPNNPRQFQGRVSLTRHASWDFDTFSFYMDLKALRSDDTAVYFCARQRSDYWDFDVWGSGTQVTVSSASTKGPSVFPLAPSSKSTSGGTAALGCLVKDYFPEPVTVSWNSGALTSGVHTFPAVLQSSGLYSLSSVVTVPSSSLGTQTYICNVNHKPSNTKVDKKVEPKSCDKTHTCPPCPAPELLAGPDVFLFPPKPKDTLMISRTPEVTCVVVDVSHEDPEVKFNWYVDGVEVHNAKTKPREEQYNSTYRVVSVLTVLHQDWLNGKEYKCKVSNKALPLPEEKTISKAKGQPREPQVYTLPPSREEMTKNQVSLTCLVKGFYPSDIAVEWESNGQPENNYKTTPPVLDSDGSFFLYSKLTVDKSRWQQGNVFSCSVLHEALHSHYTQKSLSLSPGK
light: DIQMTQSPSSLSASVGDTVTITCQANGYLNWYQQRRGKAPKLLIYDGSKLERGVPSRFSGRRWGQEYNLTINNLQPEDIATYFCQVYEFVVPGTNVDLKRTVAAPSVFIFPPSDEQLKSGTASVVCLLNNFYPREAKVQWKVDNALQSGNSQESVTEQDSKDSTYSLSSTLTLSKADYEKHKVYACEVTHQGLSSPVTKSFNRGEC
- ELISA A450 (gp120 SHIV SF162 P3): 1.01 A450
- ELISA A450 (gp120 Bal): 0.9 A450
- ELISA A450 (gp120 CAAN): 0.92 A450
- ELISA A450 (BSA): 0.07 A450

B4: 1.1.28-1 (antibody, human IgG1, kappa)
heavy: QVQLLQSGAAVTKPGASVRVSCEASGYNIRDYFIHWWRQAPGQGLQWVGWINPKTGQPNNPRQFQGRVSLTRHASWDFDTFSFYMDLKALRSDDTAVYFCARQRSDYWDFDVWGSGTQVTVSSASTKGPSVFPLAPSSKSTSGGTAALGCLVKDYFPEPVTVSWNSGALTSGVHTFPAVLQSSGLYSLSSVVTVPSSSLGTQTYICNVNHKPSNTKVDKKVEPKSCDKTHTCPPCPAPELLAGPDVFLFPPKPKDTLMISRTPEVTCVVVDVSHEDPEVKFNWYVDGVEVHNAKTKPREEQYNSTYRVVSVLTVLHQDWLNGKEYKCKVSNKALPLPEEKTISKAKGQPREPQVYTLPPSREEMTKNQVSLTCLVKGFYPSDIAVEWESNGQPENNYKTTPPVLDSDGSFFLYSKLTVDKSRWQQGNVFSCSVLHEALHSHYTQKSLSLSPGK
light: DIQMTQSPSSLSASVGDTVTITCQANGYLNWYQQRRGKAPKLLIYDGSKLERGVPSRFSGRRWGQEYNLTINNLQPEDIATYFCQVYEFVVPGTNVDIKRTVAAPSVFIFPPSDEQLKSGTASVVCLLNNFYPREAKVQWKVDNALQSGNSQESVTEQDSKDSTYSLSSTLTLSKADYEKHKVYACEVTHQGLSSPVTKSFNRGEC
- ELISA A450 (gp120 SHIV SF162 P3): 1.09 A450
- ELISA A450 (gp120 Bal): 0.98 A450
- ELISA A450 (gp120 CAAN): 0.93 A450
- ELISA A450 (BSA): 0.06 A450

B5: 1.1.24-1 (antibody, human IgG1, kappa)
heavy: QVQLLQSGAAVTKPGASVRVSCEASGYNIRDYFIHWWRQAPGQGLQWVGWINPKTGQPNNPRQFQGRVSLTRHASWDFDTFSFYMDLKALRSDDTAVYFCARQRSDYWDFDVWGSGTQVTVSSASTKGPSVFPLAPSSKSTSGGTAALGCLVKDYFPEPVTVSWNSGALTSGVHTFPAVLQSSGLYSLSSVVTVPSSSLGTQTYICNVNHKPSNTKVDKKVEPKSCDKTHTCPPCPAPELLAGPDVFLFPPKPKDTLMISRTPEVTCVVVDVSHEDPEVKFNWYVDGVEVHNAKTKPREEQYNSTYRVVSVLTVLHQDWLNGKEYKCKVSNKALPLPEEKTISKAKGQPREPQVYTLPPSREEMTKNQVSLTCLVKGFYPSDIAVEWESNGQPENNYKTTPPVLDSDGSFFLYSKLTVDKSRWQQGNVFSCSVLHEALHSHYTQKSLSLSPGK
light: DIQMTQSPSSLSASVGDTVTITCQANGYLNWYQQRRGKAPKLLIYDGSKLERGVPSRFSGRRWGQEYNLTINNLQPEDIATYFCQVYEFVVPGTRVDLKRTVAAPSVFIFPPSDEQLKSGTASVVCLLNNFYPREAKVQWKVDNALQSGNSQESVTEQDSKDSTYSLSSTLTLSKADYEKHKVYACEVTHQGLSSPVTKSFNRGEC
- ELISA A450 (gp120 SHIV SF162 P3): 0.97 A450
- ELISA A450 (gp120 Bal): 0.88 A450
- ELISA A450 (gp120 CAAN): 0.98 A450
- ELISA A450 (BSA): 0.06 A450

B6: 1.1.23-1 (antibody, human IgG1, kappa)
heavy: QVQLLQSGAAVTKPGASVRVSCEASGYNIRDYFIHWWRQAPGQGLQWVGWINPKTGQPNNPRQFQGRVSLTRHASWDFDTFSFYMDLKALRSDDTAVYFCARQRSDYWDFDVWGSGTQVTVSSASTKGPSVFPLAPSSKSTSGGTAALGCLVKDYFPEPVTVSWNSGALTSGVHTFPAVLQSSGLYSLSSVVTVPSSSLGTQTYICNVNHKPSNTKVDKKVEPKSCDKTHTCPPCPAPELLAGPDVFLFPPKPKDTLMISRTPEVTCVVVDVSHEDPEVKFNWYVDGVEVHNAKTKPREEQYNSTYRVVSVLTVLHQDWLNGKEYKCKVSNKALPLPEEKTISKAKGQPREPQVYTLPPSREEMTKNQVSLTCLVKGFYPSDIAVEWESNGQPENNYKTTPPVLDSDGSFFLYSKLTVDKSRWQQGNVFSCSVLHEALHSHYTQKSLSLSPGK
light: DIQMTQSPSSLSASVGDTVTITCQANGYLNWYQQRRGKAPKLLIYDGSKLERGVPSRFSGRRWGQEYNLTINNLQPEDIATYFCQVYEFVTPGTNLDLKRTVAAPSVFIFPPSDEQLKSGTASVVCLLNNFYPREAKVQWKVDNALQSGNSQESVTEQDSKDSTYSLSSTLTLSKADYEKHKVYACEVTHQGLSSPVTKSFNRGEC
- ELISA A450 (gp120 SHIV SF162 P3): 1.07 A450
- ELISA A450 (gp120 Bal): 0.9 A450
- ELISA A450 (gp120 CAAN): 0.95 A450
- ELISA A450 (BSA): 0.06 A450

B7: 1.1.27-1 (antibody, human IgG1, kappa)
heavy: QVQLLQSGAAVTKPGASVRVSCEASGYNIRDYFIHWWRQAPGQGLQWVGWINPKTGQPNNPRQFQGRVSLTRHASWDFDTFSFYMDLKALRSDDTAVYFCARQRSDYWDFDVWGSGTQVTVSSASTKGPSVFPLAPSSKSTSGGTAALGCLVKDYFPEPVTVSWNSGALTSGVHTFPAVLQSSGLYSLSSVVTVPSSSLGTQTYICNVNHKPSNTKVDKKVEPKSCDKTHTCPPCPAPELLAGPDVFLFPPKPKDTLMISRTPEVTCVVVDVSHEDPEVKFNWYVDGVEVHNAKTKPREEQYNSTYRVVSVLTVLHQDWLNGKEYKCKVSNKALPLPEEKTISKAKGQPREPQVYTLPPSREEMTKNQVSLTCLVKGFYPSDIAVEWESNGQPENNYKTTPPVLDSDGSFFLYSKLTVDKSRWQQGNVFSCSVLHEALHSHYTQKSLSLSPGK
light: DIQMTQSPSSLSASVGDTVTITCQANGYLNWYQQRRGKAPKLLIYDGSKLERGVPSRFSGRRWGQEYNLTINNLQPEDIATYFCQVYEFVVPGTRVDIKRTVAAPSVFIFPPSDEQLKSGTASVVCLLNNFYPREAKVQWKVDNALQSGNSQESVTEQDSKDSTYSLSSTLTLSKADYEKHKVYACEVTHQGLSSPVTKSFNRGEC
- ELISA A450 (gp120 SHIV SF162 P3): 1.1 A450
- ELISA A450 (gp120 Bal): 0.97 A450
- ELISA A450 (gp120 CAAN): 0.99 A450
- ELISA A450 (BSA): 0.06 A450

B8: 1.1.29-1 (antibody, human IgG1, kappa)
heavy: QVQLLQSGAAVTKPGASVRVSCEASGYNIRDYFIHWWRQAPGQGLQWVGWINPKTGQPNNPRQFQGRVSLTRHASWDFDTFSFYMDLKALRSDDTAVYFCARQRSDYWDFDVWGSGTQVTVSSASTKGPSVFPLAPSSKSTSGGTAALGCLVKDYFPEPVTVSWNSGALTSGVHTFPAVLQSSGLYSLSSVVTVPSSSLGTQTYICNVNHKPSNTKVDKKVEPKSCDKTHTCPPCPAPELLAGPDVFLFPPKPKDTLMISRTPEVTCVVVDVSHEDPEVKFNWYVDGVEVHNAKTKPREEQYNSTYRVVSVLTVLHQDWLNGKEYKCKVSNKALPLPEEKTISKAKGQPREPQVYTLPPSREEMTKNQVSLTCLVKGFYPSDIAVEWESNGQPENNYKTTPPVLDSDGSFFLYSKLTVDKSRWQQGNVFSCSVLHEALHSHYTQKSLSLSPGK
light: DIQMTQSPSSLSASVGDTVTITCQANGYLNWYQQRRGKAPKLLIYDGSKLERGVPSRFSGRRWGQEYNLTINNLQPEDIATYFCQVYEFVGPGTNVDIKRTVAAPSVFIFPPSDEQLKSGTASVVCLLNNFYPREAKVQWKVDNALQSGNSQESVTEQDSKDSTYSLSSTLTLSKADYEKHKVYACEVTHQGLSSPVTKSFNRGEC
- ELISA A450 (gp120 SHIV SF162 P3): 0.9 A450
- ELISA A450 (gp120 Bal): 0.91 A450
- ELISA A450 (gp120 CAAN): 1.01 A450
- ELISA A450 (BSA): 0.06 A450
